One assay has as its target human α11β1 (Homo sapiens, UniProt Q9UKX5). In words: ELISA binding to recombinant human α11β1. As to conditions: binding Yes/No. A digest of the protocol:
(§1)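 Antibodies at a range of concentrations bind plate-immobilized recombinant α11β1 (human or mouse, 0.25 μg/mL coating) for 1 h at room temperature.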
For orientation: In an ELISA, binding on a coated surface is turned into a signal by an enzyme label.

The next assay has as its target mouse α11β1 (Mus musculus, UniProt P61622). In words: ELISA binding to recombinant mouse α11β1. As to conditions: binding Yes/No. A digest of the protocol: as §1
A further assay deals with α1β1, α2β1 and/or α10β1. The assay is described as follows: Counter-screen for cross-reactivity to other collagen receptors. The class given is binding, human. As to conditions: cross-reactivity to α1β1, α2β1, α10β1. A digest of the protocol: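 Rat- and mouse-derived anti-α11β1 hybridoma supernatants or clones, first identified by ELISA against human and mouse α11β1, were counter-screened by ELISA against human α1β1, α2β1 and α10β1 to assess cross-reactivity to related collagen receptors.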
In general terms: The purpose of a counterscreen is to sort out artefacts and off-target activity.

Another assay concerns the target T1, I domain of α11β1 (Homo sapiens, UniProt Q9UKX5).
T1 construct: An in-house generated I domain of α11β1 was used; made in house
T1 sequence (Q9UKX5 164-345 limits assumed): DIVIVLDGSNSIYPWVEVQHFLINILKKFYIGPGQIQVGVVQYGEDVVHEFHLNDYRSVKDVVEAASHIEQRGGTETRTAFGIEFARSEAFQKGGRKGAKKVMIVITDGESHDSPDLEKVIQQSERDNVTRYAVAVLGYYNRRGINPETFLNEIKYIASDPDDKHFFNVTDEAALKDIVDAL
The assay is described as follows: ELISA binding to in-house generated I domain of α11β1. The settings on record: Yes/No. A digest of the protocol:
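Plate-coated antigen (0.25 μg/mL, overnight 4° C) probed with antibody dilution series 1 h at room temperature, then biotinylated anti-IgG and streptavidin-HRP, 1 h each. TMB substrate 5 min, stopped, absorbance at 450 nm; in-house I domain of α11β1 used as target.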

Assay [1] deals with human pulmonary fibroblasts (HPFs). In words: FACS antibody binding to human pulmonary fibroblasts. As to conditions: binding Yes/No.
A further assay has as its system myofibroblasts (MF). The assay is described as follows: FACS antibody binding to myofibroblasts. As to conditions: binding Yes/No. Also on record: species or system human. A digest of the protocol:
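Human pulmonary fibroblasts, serum-starved 24 h then TGFβ-1-treated 72 h to give myofibroblasts, were blocked with heat-inactivated FBS and stained with anti-α11 antibodies, then PE secondary, 30 min each at 4 °C, before 1% PFA fixation. Binding read by flow cytometry as PE geometric MFI of single cells.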

The subject of assay [2] is CHO-K1 cells expressing human α11. In words: Cell adhesion inhibition (xCelligence), type I collagen. The settings on record: Yes/No. The class given is cell-based. A digest of the protocol: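 CHO-K1 cells expressing human α11 (0.6×10^6 cells/mL) were preincubated with mAbs across a concentration range for 20 min at 37° C, then seeded on wells coated with 100 ng/mL type I collagen and blocked with 3% BSA. Impedance-based adhesion was recorded over 6 h, and maximum adhesion was compared with untreated control.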

Chain of mouse α11β1 (P61622 23-1141 limits assumed): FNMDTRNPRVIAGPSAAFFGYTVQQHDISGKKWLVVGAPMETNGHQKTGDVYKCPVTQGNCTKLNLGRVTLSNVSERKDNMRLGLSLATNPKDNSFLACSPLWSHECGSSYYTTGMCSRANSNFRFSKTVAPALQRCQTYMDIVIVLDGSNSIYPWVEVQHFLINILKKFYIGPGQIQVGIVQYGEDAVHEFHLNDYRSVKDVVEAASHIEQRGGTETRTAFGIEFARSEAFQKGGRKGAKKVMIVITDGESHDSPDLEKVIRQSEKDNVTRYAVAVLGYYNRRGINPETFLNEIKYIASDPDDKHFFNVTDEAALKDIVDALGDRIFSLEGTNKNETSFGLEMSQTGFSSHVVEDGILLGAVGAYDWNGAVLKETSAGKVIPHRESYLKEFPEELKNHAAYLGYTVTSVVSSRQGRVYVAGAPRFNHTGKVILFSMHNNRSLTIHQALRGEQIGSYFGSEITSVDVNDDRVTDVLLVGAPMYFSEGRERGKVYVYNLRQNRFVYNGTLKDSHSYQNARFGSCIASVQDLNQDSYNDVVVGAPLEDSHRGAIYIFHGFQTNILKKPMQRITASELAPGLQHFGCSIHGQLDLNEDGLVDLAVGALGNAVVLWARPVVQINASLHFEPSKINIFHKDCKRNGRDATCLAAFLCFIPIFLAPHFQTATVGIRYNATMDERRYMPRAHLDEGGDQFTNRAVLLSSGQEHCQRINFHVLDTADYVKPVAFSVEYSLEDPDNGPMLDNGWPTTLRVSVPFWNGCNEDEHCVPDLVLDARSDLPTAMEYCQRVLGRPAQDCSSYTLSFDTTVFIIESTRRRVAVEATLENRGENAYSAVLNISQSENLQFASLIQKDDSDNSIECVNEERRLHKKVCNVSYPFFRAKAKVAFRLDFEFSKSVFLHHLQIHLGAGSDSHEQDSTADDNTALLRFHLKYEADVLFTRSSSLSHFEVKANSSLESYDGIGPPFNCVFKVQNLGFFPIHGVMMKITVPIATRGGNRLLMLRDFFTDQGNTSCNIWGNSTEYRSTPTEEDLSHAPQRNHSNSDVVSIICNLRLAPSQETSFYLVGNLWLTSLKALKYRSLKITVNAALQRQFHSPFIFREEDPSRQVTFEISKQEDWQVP
Chain of mouse α11β1 (P09055 21-728 partner limits assumed): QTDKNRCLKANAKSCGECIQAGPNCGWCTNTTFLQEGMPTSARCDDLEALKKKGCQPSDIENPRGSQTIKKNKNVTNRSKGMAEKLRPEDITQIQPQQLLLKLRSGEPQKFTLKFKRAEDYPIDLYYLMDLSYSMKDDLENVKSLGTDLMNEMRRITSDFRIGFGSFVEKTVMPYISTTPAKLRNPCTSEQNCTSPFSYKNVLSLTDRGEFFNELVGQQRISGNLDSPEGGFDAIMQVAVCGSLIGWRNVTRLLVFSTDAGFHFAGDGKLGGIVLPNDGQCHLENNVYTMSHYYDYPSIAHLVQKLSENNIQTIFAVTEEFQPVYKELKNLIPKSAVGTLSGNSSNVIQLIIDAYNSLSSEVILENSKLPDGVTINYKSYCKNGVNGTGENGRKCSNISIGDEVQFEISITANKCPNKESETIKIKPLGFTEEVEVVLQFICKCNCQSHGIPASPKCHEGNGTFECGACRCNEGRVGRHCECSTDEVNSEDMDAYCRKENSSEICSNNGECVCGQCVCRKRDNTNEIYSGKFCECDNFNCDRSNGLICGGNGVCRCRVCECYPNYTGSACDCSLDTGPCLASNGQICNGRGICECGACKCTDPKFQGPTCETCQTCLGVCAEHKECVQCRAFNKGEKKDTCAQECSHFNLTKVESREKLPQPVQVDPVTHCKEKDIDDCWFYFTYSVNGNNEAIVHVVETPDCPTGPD
Chain of human α11β1 (Q9UKX5 23-1141 limits assumed): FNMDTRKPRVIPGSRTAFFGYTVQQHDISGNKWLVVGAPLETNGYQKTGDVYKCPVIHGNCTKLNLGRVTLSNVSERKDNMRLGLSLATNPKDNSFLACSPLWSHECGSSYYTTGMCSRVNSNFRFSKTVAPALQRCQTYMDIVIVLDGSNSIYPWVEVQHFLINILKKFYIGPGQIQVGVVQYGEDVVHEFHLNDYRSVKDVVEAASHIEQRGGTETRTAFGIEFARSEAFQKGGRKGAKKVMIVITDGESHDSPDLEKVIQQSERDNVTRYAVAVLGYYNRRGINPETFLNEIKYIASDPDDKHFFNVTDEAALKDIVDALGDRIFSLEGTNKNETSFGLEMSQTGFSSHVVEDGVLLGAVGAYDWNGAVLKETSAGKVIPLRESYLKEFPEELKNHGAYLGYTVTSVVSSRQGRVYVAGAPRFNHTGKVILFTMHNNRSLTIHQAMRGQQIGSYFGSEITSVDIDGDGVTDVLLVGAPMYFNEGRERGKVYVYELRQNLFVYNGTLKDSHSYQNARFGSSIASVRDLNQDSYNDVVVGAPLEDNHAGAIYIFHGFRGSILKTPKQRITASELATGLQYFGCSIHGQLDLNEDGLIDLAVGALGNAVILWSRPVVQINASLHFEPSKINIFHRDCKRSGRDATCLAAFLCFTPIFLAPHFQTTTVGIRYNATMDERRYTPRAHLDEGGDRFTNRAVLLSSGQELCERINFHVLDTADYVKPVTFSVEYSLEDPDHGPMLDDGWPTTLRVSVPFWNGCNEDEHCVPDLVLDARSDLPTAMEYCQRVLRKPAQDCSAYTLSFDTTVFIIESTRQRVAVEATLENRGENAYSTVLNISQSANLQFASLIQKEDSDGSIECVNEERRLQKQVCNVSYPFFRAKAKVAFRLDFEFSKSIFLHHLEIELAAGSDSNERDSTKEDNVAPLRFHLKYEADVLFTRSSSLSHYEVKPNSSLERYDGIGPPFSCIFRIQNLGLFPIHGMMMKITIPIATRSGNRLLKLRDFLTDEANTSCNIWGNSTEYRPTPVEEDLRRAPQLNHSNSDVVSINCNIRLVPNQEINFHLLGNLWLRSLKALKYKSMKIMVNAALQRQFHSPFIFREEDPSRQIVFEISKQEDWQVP
Chain of human α11β1 (P05556 21-728 partner limits assumed): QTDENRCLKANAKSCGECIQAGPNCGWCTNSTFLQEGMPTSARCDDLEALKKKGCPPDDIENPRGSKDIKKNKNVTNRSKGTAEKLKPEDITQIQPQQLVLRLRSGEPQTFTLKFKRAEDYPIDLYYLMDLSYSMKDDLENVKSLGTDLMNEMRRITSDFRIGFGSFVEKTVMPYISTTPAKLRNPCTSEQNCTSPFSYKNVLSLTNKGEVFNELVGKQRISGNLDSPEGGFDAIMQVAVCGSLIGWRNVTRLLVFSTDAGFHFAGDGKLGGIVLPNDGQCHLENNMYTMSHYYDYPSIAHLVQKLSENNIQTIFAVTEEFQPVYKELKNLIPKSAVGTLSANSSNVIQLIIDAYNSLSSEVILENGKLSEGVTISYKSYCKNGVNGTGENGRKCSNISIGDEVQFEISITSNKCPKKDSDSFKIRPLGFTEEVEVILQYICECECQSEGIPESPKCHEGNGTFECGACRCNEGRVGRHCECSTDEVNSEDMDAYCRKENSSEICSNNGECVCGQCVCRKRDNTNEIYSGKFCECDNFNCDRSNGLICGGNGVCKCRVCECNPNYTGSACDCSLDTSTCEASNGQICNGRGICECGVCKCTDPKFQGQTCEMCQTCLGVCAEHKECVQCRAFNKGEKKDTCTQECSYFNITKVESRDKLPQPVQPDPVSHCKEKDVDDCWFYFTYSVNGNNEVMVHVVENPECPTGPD

B1: 7D8B10: rat anti-α11β1 mAb; VH SEQ ID NO: 153, VL SEQ ID NO: 154 (antibody, V domains shown)
VH: MDLRLTYVFIVAILKGVLCEVKLEESGGGLVQPGMSVKLSCATSGFIFSDYWMEWVRQAPGKGLEWVAEIRNKANNYATYYGKSMKGRFTISRDDSKSIVYLQVNSIRSEDTAIYYCAPNFDYWGQGVMVTVSS
VL: MSPVQSLFLLLLWILGTHGDVVLTQTPPTLSATIGQSVSISCRSSQSLLHSTGNTYLNWLLQRPGQPPQLLIYLVSRLESGVPNRFSASGSGTDFTLKISGIEAEDLGVYYCVQSSHTPYTFGTGTKLELK
As to B1, the “Human α11β1 ELISA” value with human α11β1 is reported as “Yes”. For the same molecule, the “Murine α11β1 ELISA” value with mouse α11β1 is “No”. Further, in the assay on α1β1, α2β1 and/or α10β1, the “Off Target” value was “No”. In addition, the “I Domain binding” value with I domain of α11β1 is reported as “No”. Besides, in assay [1], the “HPF FACS” value is given as “No”. The “MF FACS” value in the assay on myofibroblasts (MF) is “Yes”. Further, the “Inhibition of CHO-K1 adhesion to collagen” value (from here on “Inhibition”) in assay [2] is recorded as “No”.

B2: 7-H14: mouse anti-α11β1 mAb; VH SEQ ID NO: 121, VL SEQ ID NO: 122 (antibody, V domains shown)
VH: QVQLQQPGAELVRPGASVKLSCKPSGYTFTSYWMNWVKQRPGQGLEWIGMIDPSDSETHYNQMFKDKATLTVDKSSNTAYMQLSSLTSEDSAVYYCAQIYYAYDKAYWGQGTLVTVSA
VL: DIVMSQSPSSLAVSVGEKVTMSCKSSQSLLYSSHQKNYLAWYQQKPGQSPKLLIYWASTRESGVPDRFTGSGSGTDFSLTISSVKAEDLAVYYCQEYYSWTFGGGTKLEIK
On to B2, for which the “Human α11β1 ELISA” value with human α11β1 is on record as “Yes”. In the assay with mouse α11β1, the “Murine α11β1 ELISA” value is reported as “Yes/Low”. For the same molecule, the “Off Target” value in the assay with α1β1, α2β1 and/or α10β1 is given as “No”. In the assay with I domain of α11β1, the “I Domain binding” value is “No”. For the same molecule, in assay [1], the “HPF FACS” value was “No”. Also, the “MF FACS” value with myofibroblasts (MF) is “Yes”. The “Inhibition” value in assay [2] is on record as “No”.

B3: 6G4: rabbit anti-α11β1 mAb; heavy chain SEQ ID NO: 181, light chain SEQ ID NO: 182 (antibody)
heavy: METGLRWLLLVAVLKGVQCQQQLEESGGGLVKPGGTLTLTCKASGVALNPYYYMCWVRQAPGKGLEWIACVDADSSGSTYYASWAKGRFTISKTSSTTVTLKMTSLTAADTATYFCARESVDYSSVGIGYVHGTDGLWGPGTLVTVSSGQPKAPSVFPLAPCCGDTPSSTVTLGCLVKGYLPEPVTVTWNSGTLTNGVRTFPSVRQSSGLYSLSSVVSVTSSSQPVTCNVAHPATNTKVDKTVAPSTCSKPMCPPPELPGGPSVFIFPPKPKDTLMISRTPEVTCVVVDVSQDDPEVQFTWYINNEQVRTARPPLREQQFNSTIRVVSTLPIAHQDWLRGKEFKCKVHNKALPAPIEKTISKARGQPLEPKVYTMGPPREELSSRSVSLTCMINGFYPSDISVEWEKNGKAEDNYKTTPTVLDSDGSYFLYSKLSVPTSEWQRGDVFTCSVMHEALHNHYTQKSISRSPGK
light: MDTRAPTQLLGLLLLWLPGARCADIVVTQTPSSVSAAVGGTVTIKCQASQSISNYFSWYQQKPGQPPKLLIYRASTLASGVPSRFKGSGSGTEFTLTISDLECADAATYYCQCTYGRSNSNFFYGFGGGTEVVVKGDPVAPTVLIFPPAADQVATGTVTIVCVANKYFPDVTVTWEVDGTTQTTGIENSKTPQNSADCTYNLSSTLTLTSTQYNSHKEYTCKVTQGTTSVVQSFNRGDC
For the molecule B3, in the assay with human α11β1, the “Human α11β1 ELISA” value was “Yes”. The “Murine α11β1 ELISA” value in the assay with mouse α11β1 is on record as “No”. Also, in the assay on α1β1, α2β1 and/or α10β1, the “Off Target” value is on record as “No”. Besides, in the assay with I domain of α11β1, the “I Domain binding” value is “No”. Also, the “HPF FACS” value in assay [1] is reported as “No”. In addition, the “MF FACS” value in the assay on myofibroblasts (MF) was “Yes”. Also, the “Inhibition” value in assay [2] was “Yes”.

B4: 6-A12: mouse anti-α11β1 mAb; VH SEQ ID NO: 127, VL SEQ ID NO: 128 (antibody, V domains shown)
VH: QVTLKESGPGILQPSQTLSLTCSFSGFSLRTFAMGVGWIRQPSGKGLEWLAHIWWDDDKYYNPALKSRLTISKDTSKNQVFLKIANVDTADTATYYCARMPLTFYFDYWGQGTTLTVSS
VL: DVLMTQTPLSLPVSLGDQASISCRSSQSIVHSNGNTYLEWYLQKPGQSPKLLIYKVSTRFSGVPDRFSGSGSGTDFTLKISRVEAEDLGVYYCFQGSHVPFTFGGGTKLEIK
As to B4, the “Human α11β1 ELISA” value in the assay with human α11β1 is “Yes”. Besides, the “Murine α11β1 ELISA” value in the assay with mouse α11β1 is “Yes/Low”. The “Off Target” value in the assay on α1β1, α2β1 and/or α10β1 was “No”. Also, the “I Domain binding” value with I domain of α11β1 is given as “Yes”. Further, the “HPF FACS” value in assay [1] is recorded as “No”. Besides, the “MF FACS” value in the assay with myofibroblasts (MF) is reported as “Yes”. Besides, the “Inhibition” value in assay [2] is on record as “Yes”.

B5: 6-M8: mouse anti-α11β1 mAb; VH SEQ ID NO: 129, VL SEQ ID NO: 130 (antibody, V domains shown)
VH: QVQLQQPGAELVMPGASVKLSCKASGYTFTNYWMHWVKQRPGQGLEWIGEIDPSDSYTNYNQKFKGKATLTVDKSSSTAYMQLSSLTSEDSAVYYCTRQGSTYAWGQGTSVTVSS
VL: DIVMTQAAFSNPVTLGTSASISCRSSKSLLHSNGITYLYWYLQKPGQSPQLLIYQMSNLASGVPDRFSSSGSGTDFTLRISRVEAEDVGVYYCAQNLELPPTFGGGTKLEIK
For B5, the “Human α11β1 ELISA” value with human α11β1 is given as “Yes”. Also, in the assay with mouse α11β1, the “Murine α11β1 ELISA” value is given as “No”. The “Off Target” value in the assay with α1β1, α2β1 and/or α10β1 is reported as “No”. In addition, the “I Domain binding” value in the assay with I domain of α11β1 is given as “No”. Moreover, in assay [1], the “HPF FACS” value is “No”. The “MF FACS” value in the assay on myofibroblasts (MF) was “No”. The “Inhibition” value in assay [2] is “No”.

B6: 6F9: rabbit anti-α11β1 mAb; heavy chain SEQ ID NO: 183, light chain SEQ ID NO: 184 (antibody)
heavy: METGLRWLLLVAVLKGVQCQSLEESGGDLVKPGASLTLTCTASGSSFSSTYWNCWVRQAPGKGLEWIACINAGSGTTYYASWAKGRFTVSKTSSTTVTLQMTSLTAADTATYFCTRDSDGRFSSGYYFNLWGPGTLVTVSSGQPKAPSVFPLAPCCGDTPSSTVTLGCLVKGYLPEPVTVTWNSGTLTNGVRTFPSVRQSSGLYSLSSVVSVTSSSQPVTCNVAHPATNTKVDKTVAPSTCSKPMCPPPELPGGPSVFIFPPKPKDTLMISRTPEVTCVVVDVSQDDPEVQFTWYINNEQVRTARPPLREQQFNSTIRVVSTLPIAHQDWLRGKEFKCKVHNKALPAPIEKTISKARGQPLEPKVYTMGPPREELSSRSVSLTCMINGFYPSDISVEWEKNGKAEDNYKTTPTVLDSDGSYFLYSKLSVPTSEWQRGDVFTCSVMHEALHNHYTQKSISRSPGK
light: MDTRAPTQLLGLLLLWLPGATFAQVLTQTASPVSAAVGGTVTINCQSSQSVYDNNWLAWYQQKPGQPPKLLIDDASKLTSGVSSRFKGSGSGTQFTLTISGVQCDDAATYYCQGAYYSSGWYWAFGGGTEVVVKGDPVAPTVLIFPPAADQVATGTVTIVCVANKYFPDVTVTWEVDGTTQTTGIENSKTPQNSADCTYNLSSTLTLTSTQYNSHKEYTCKVTQGTTSVVQSFNRGDC
Regarding B6, the “Human α11β1 ELISA” value with human α11β1 was “Yes”. In addition, the “Murine α11β1 ELISA” value with mouse α11β1 is recorded as “No”. Moreover, in the assay on α1β1, α2β1 and/or α10β1, the “Off Target” value is given as “No”. Further, in the assay with I domain of α11β1, the “I Domain binding” value is “No”. For the same molecule, the “HPF FACS” value in assay [1] is on record as “No”. Moreover, in the assay on myofibroblasts (MF), the “MF FACS” value is reported as “Yes”. Besides, the “Inhibition” value in assay [2] is on record as “Yes”.

B7: 9-B11: mouse anti-α11β1 mAb; VH SEQ ID NO: 115, VL SEQ ID NO: 116 (antibody, V domains shown)
VH: QVQLQQPGAELVRPGTSVKLSCKASGYTFTSYWMHWVQQRPGQGLEWIGVIDPSDSYTNYNQKFKGKATLTVDTSSSSAYMQLSSLTSEDSAVYYCARDDVAMDYWGQGTSVTVSS
VL: DIVVTQSPASLAVSLGQRATISCRASESVDSYGNSFIHWYQQKPGQPPKLLIYRASNLKSGIPARFSGSGSRTDFTLTINPVEADDVATYYCQQSNEDPYTFGGGTKLEIK
On to B7, for which the “Human α11β1 ELISA” value with human α11β1 was “Yes”. Besides, the “Murine α11β1 ELISA” value in the assay with mouse α11β1 is on record as “No”. Further, the “Off Target” value in the assay with α1β1, α2β1 and/or α10β1 was “No”. The “I Domain binding” value with I domain of α11β1 was “Yes”. Moreover, in assay [1], the “HPF FACS” value was “No”. The “MF FACS” value in the assay with myofibroblasts (MF) is “Yes”. Also, in assay [2], the “Inhibition” value is on record as “Yes”.

Values taken from patent US12460006B2, “Antibodies against integrin alpha 11 beta 1” (Momenta Pharmaceuticals, Inc., priority 2019, dated 2025).
